Experimental data reported in patent EP4592317A1 (ABlink Biotech Co., Ltd., dated 2025).
Where “and” joins values, the source holds several entries; their conditions need not be identical. Equal values may be shown once.

Tests used:
[1] = biological target: T1, Human 4-1BB extracellular domain recombinant protein (his-tag) (human, UniProt Q07011 24-186); experiment: SPR (Biacore 8K), VHH-hFc captured on Protein A chip, human 4-1BB-his as analyte, 25°C, 1:1 fit
T1 construct: extracellular domain; also called Human4-1BB, his-tag; human 4-1BB extracellular region recombinant protein; not shown: his-tag

[2] = biological target: T2, Mouse 4-1BB extracellular region recombinant protein (his-tag) (mouse, UniProt P20334 24-187); experiment: ELISA, coated mouse 4-1BB-his 200 ng/well; antibody 0.12 µg/ml
T2 construct: extracellular domain; also called Mouse4-1BB, his-tag; not shown: his-tag
T2 sequence (looked up): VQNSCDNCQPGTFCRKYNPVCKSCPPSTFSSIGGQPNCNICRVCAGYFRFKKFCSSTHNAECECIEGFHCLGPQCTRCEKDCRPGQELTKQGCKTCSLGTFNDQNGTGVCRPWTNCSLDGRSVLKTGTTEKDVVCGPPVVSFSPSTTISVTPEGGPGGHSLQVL

[3] = biological target: T1, Human 4-1BB extracellular domain …; experiment: ELISA, coated human 4-1BB-his 200 ng/well; antibody 0.014 µg/ml
[4] = biological target: T1, Human 4-1BB extracellular domain …; experiment: ELISA, coated human 4-1BB-his 200 ng/well; antibody 1.11 µg/ml
[5] = biological target: T2, Mouse 4-1BB extracellular region …; experiment: ELISA, coated mouse 4-1BB-his 200 ng/well; antibody 3.33 µg/ml
[6] = biological target: T1, Human 4-1BB extracellular domain …; experiment: ELISA, coated human 4-1BB-his 200 ng/well; antibody 0.37 µg/ml
[7] = biological target: T1, Human 4-1BB extracellular domain …; experiment: ELISA, coated human 4-1BB-his 200 ng/well; antibody 0.12 µg/ml
[8] = biological target: T3, Monkey 4-1BB extracellular region recombinant protein (his-tag) (monkey); experiment: ELISA, coated monkey 4-1BB-his 200 ng/well; antibody 1.11 µg/ml
T3 construct: extracellular domain; also called Monkey4-1BB, his-tag

[9] = biological target: T2, Mouse 4-1BB extracellular region …; experiment: ELISA, coated mouse 4-1BB-his 200 ng/well; antibody 1.11 µg/ml
[10] = biological target: T3, Monkey 4-1BB extracellular region …; experiment: ELISA, coated monkey 4-1BB-his 200 ng/well; antibody 0.37 µg/ml
[11] = biological target: T3, Monkey 4-1BB extracellular region …; experiment: ELISA, coated monkey 4-1BB-his 200 ng/well; antibody 0 µg/ml (background well)
[12] = biological target: T2, Mouse 4-1BB extracellular region …; experiment: ELISA, coated mouse 4-1BB-his 200 ng/well; antibody 10.0 µg/ml
[13] = biological target: T3, Monkey 4-1BB extracellular region …; experiment: ELISA, coated monkey 4-1BB-his 200 ng/well; antibody 0.12 µg/ml
[14] = biological target: T3, Monkey 4-1BB extracellular region …; experiment: ELISA, coated monkey 4-1BB-his 200 ng/well; antibody 3.33 µg/ml
[15] = biological target: T3, Monkey 4-1BB extracellular region …; experiment: ELISA, coated monkey 4-1BB-his 200 ng/well
[16] = biological target: T3, Monkey 4-1BB extracellular region …; experiment: ELISA, coated monkey 4-1BB-his 200 ng/well; antibody 0.014 µg/ml
[17] = biological target: T3, Monkey 4-1BB extracellular region …; experiment: ELISA, coated monkey 4-1BB-his 200 ng/well; antibody 10.0 µg/ml
[18] = biological target: T2, Mouse 4-1BB extracellular region …; experiment: ELISA, coated mouse 4-1BB-his 200 ng/well; antibody 0.37 µg/ml
[19] = biological target: T1, Human 4-1BB extracellular domain …; experiment: ELISA, coated human 4-1BB-his 200 ng/well; antibody 10.0 µg/ml
[20] = biological target: T1, Human 4-1BB extracellular domain …; experiment: ELISA, coated human 4-1BB-his 200 ng/well; antibody 0.041 µg/ml
[21] = biological target: T3, Monkey 4-1BB extracellular region …; experiment: ELISA, coated monkey 4-1BB-his 200 ng/well; antibody 0.041 µg/ml
[22] = biological target: T1, Human 4-1BB extracellular domain …; experiment: ELISA, coated human 4-1BB-his 200 ng/well
[23] = biological target: T2, Mouse 4-1BB extracellular region …; experiment: ELISA, coated mouse 4-1BB-his 200 ng/well; antibody 0 µg/ml (background well)
[24] = biological target: T2, Mouse 4-1BB extracellular region …; experiment: ELISA, coated mouse 4-1BB his-tag 200 ng/well
[25] = biological target: T1, Human 4-1BB extracellular domain …; experiment: ELISA, coated human 4-1BB-his 200 ng/well; antibody 3.33 µg/ml
[26] = biological target: T2, Mouse 4-1BB extracellular region …; experiment: ELISA, coated mouse 4-1BB-his 200 ng/well; antibody 0.014 µg/ml
[27] = biological target: T1, Human 4-1BB extracellular domain …; experiment: ELISA, coated human 4-1BB-his 200 ng/well; antibody 0 µg/ml (background well)
[28] = biological target: T2, Mouse 4-1BB extracellular region …; experiment: ELISA, coated mouse 4-1BB-his 200 ng/well; antibody 0.041 µg/ml

Kd [1]: 3.36 nM | koff [1]: 0.000792 s⁻¹ | kon [1]: 236000 M⁻¹ s⁻¹ | absorbance at 450 nm [2]: 0.192 | absorbance at 450 nm [3]: 0.399 | absorbance at 450 nm [4]: 1.31 | absorbance at 450 nm [5]: 0.219 | absorbance at 450 nm [6]: 0.732 | absorbance at 450 nm [7]: 0.562 | absorbance at 450 nm [8]: 1.19 | absorbance at 450 nm [9]: 0.214 | absorbance at 450 nm [10]: 0.707 | absorbance at 450 nm [11]: 0.051 | absorbance at 450 nm [12]: 0.288 | absorbance at 450 nm [13]: 0.433 | absorbance at 450 nm [14]: 2.05 | EC50 [15]: 4.36 µg/mL and 54.5 nM | absorbance at 450 nm [16]: 0.325 | absorbance at 450 nm [17]: 3.3 | absorbance at 450 nm [18]: 0.199 | absorbance at 450 nm [19]: 2.93 | absorbance at 450 nm [20]: 0.451 | absorbance at 450 nm [21]: 0.392 | EC50 [22]: 4.06 µg/mL and 50.8 nM | absorbance at 450 nm [23]: 0.203 | binding result [24]: no binding (tested: 0.014-10 µg/mL) | absorbance at 450 nm [25]: 1.73 | absorbance at 450 nm [26]: 0.188 | absorbance at 450 nm [27]: 0.119 | absorbance at 450 nm [28]: 0.182
B1: 137-18 VHH-hFc recombinant antibody (Fc fusion)
chain: QVQLVESGGGLVHPGGSLRLSCAASGFIFSLYTMSWVRQAPGKGLEWVSDINSGGDSTDYADSVKGRFTISRDNAKSTLYLQMNSLKPEDTAVYYCAKDYPLGQREDYWGQGTQVTVSS
notes: VHH fragment inserted into vector pFclG with human IgG1 Fc tag, expressed in HEK293F; also called CD137-18; not shown: human IgG1 Fc tag of the eukaryotic expression vector pFclG
